# Biological target: OphAΔC18
# Experiment: crystal structure; proteins from the dimer fractions of gel filtration chromatography, incubated with SAM, SAH or sinefungin before crystallization; hanging drop vapor diffusion unless otherwise specified; homodimer in the crystal
substance,measurement,value
OphAΔC18 (enzyme),stoichiometry N,2
